Source: PMC3272004

Columns and labels:
[1] = biological target: GST-tagged histone H3 tail (UniProt P61830); assay: pull-down; GST-H3 tail or GST-H4 tail immobilised on glutathione beads; in vitro translated [35S]-Gro variants; overnight at 4°C in HEMNK buffer (40 mM HEPES pH 7.5, 5 mM MgCl2, 0.2 mM EDTA, 1 mM DTT, 0.5% NP-40, 0.1 M KCl); autoradiography
[2] = biological target: GST-tagged histone H4 tail (UniProt P02309); assay: as above

- fold reduction of binding against Gro^WT [1]: > 4 fold
- fold reduction of binding against Gro^WT [2]: > 4 fold
Substance: Gro^ΔCR, Gro deletion variant lacking the entire central region (GP, CcN and SP domains), untagged (from UniProt P16371 1-730) (natural protein)
